Legend:
[1] = molecular target: DREP1 CIDE domain (DFF-related protein 1), wild type (Drosophila melanogaster); test: SEC; purified proteins alone or mixed, Superdex 200 HR 10/30 in 20 mM Tris-HCl pH 8.0, 150 mM NaCl; peak fractions on SDS-PAGE
[2] = molecular target: DREP3 CIDE domain (DFF-related protein 3), wild type (Drosophila melanogaster); test: as above

| stoichiometry N [1] | stoichiometry N [2] | Substance |
| --- | --- | --- |
| 2 | – | DREP1 CIDE domain (DFF-related protein 1), wild type (domain or fragment) |
| – | 2 | DREP3 CIDE domain (DFF-related protein 3), wild type (domain or fragment) |

— publication PMC5730196
